In patent US20260102420A1, “CANCER IMMUNOTHERAPY” (Hoffmann-La Roche Inc., priority 2022, published 2026):
Like-named read-outs stand apart in the source and are kept apart here.

What was measured:
MKN45 tumors = assay: In vivo cancer model, MKN45 wt or UAP1 KO tumors in stem cell humanized NSG mice
Description: FIGS. 8A, 8B, 8C, 8D, and 8E. Deletion of UAP1 sensitizes MKN45 tumors to immunotherapy. FIG. 8A: Tumor growth curves of MKN45 wt and UAP1 KO cell in stem cell humanized NSG mice (huNSG). Animals were dosed either with vehicle control, 0.2 mg/kg or 0.4 mg/kg CEA-TCB. Time point of first dosing at day 15 as indicated. Tumor volume was measured with a caliper. Mice per group (n=10). FIG. 8B: Tumor volume ratio of TCB therapy groups and vehicle control groups for every time point after the first TCB treatment. FIG. 8C: Tumor growth curves for individual mice. Two-way-ANOVA statistical analysis was done with Graphpad Prism software. FIG. 8D and FIG. 8E show the measured individual tumor volumes over time within the treatment groups corresponding to the average values shown in FIGS. 8A and FIG. 8B.
Immunocompetent C57BL/6J and NOD.Cg-PrkdcscidIL-2rgtm1Wjl/SzJ (NSG) mice were obtained from Charles River Laboratories. All animal studies were performed under local Swiss government ethical approval and regulations (license ZH183/2020) according to international FELASA and national GV-Solas and TierSchG guidelines, respectively. […]
B16F10 and MKN45 wtl and UAP1 KO cells were trypsinized, washed and resuspended using a 1:1 mixture of tissue culture medium and Matrigel in a total volume of 100 μl. […] Tumors were measured twice weekly and tumor volume (mm3) was determined using the formula 0.5×length×width2. […]

[1] = tested on: CEA expressing metastatic CRCs; settings: cited from earlier work
A549 = assay: T cell-mediated killing assay, A549 wt vs UAP1 KO; format: cell-based, human; settings: FIG. 3C
Description: FIGS. 3A, 3B, 3C and 3D. Tumor intrinsic UAP1 regulates TCB-mediated cytotoxicity in vitro. T cell-mediated killing assay. UAP1 knockout cells and wt cells for FIG. 3A MKN45 with CEA-TCB, FIG. 3B MKN45 with EpCAM-TCB, FIG. 3C A549 with CEA-TCB and FIG. 3D B16F10 with Tyrp1-TCB were used and measured was the cell count of tumor cells over time in an incucyte. Graphs show mean±SEM. P values were calculated using two-tailed paired Student t-test. *P<0.05, **P<0.01
25000 MKN45-nuclight red (NLR), 20000 A549-hCEA and 10000 B16F10-NLR tumor cells (wt or UAP1 ko) were seeded in one well of a 96 well-plate. Afterwards TCBs or siinfekl were given at the indicated concentrations. […] For MKN45-NLR and B16F10-NLR, T cell-mediated killing was calculated based on the red fluorescent signal coming from the tumor cells. All values were first transformed to fold-change to time 0, and % specific lysis was calculated as follows: […]
For A549-hCEA, the cytotox-green reagent (sartorius) was added to the co-culture at 1:16000 dilution and T-cell mediated killing was assesses by measuring green fluorescent count in each well. All values were first transformed to fold-change to time 0, and then % normalized green signal was calculated as follows: [(Green fluorescent counts TCB/Green fluorescent counts control TCB)×100]. […] T-cell mediated killing was measured as above. […]

CD8+ and CD4+ T cells = assay: Intra-tumor T cell activation marker analysis by flow cytometry; format: in vivo, mice; settings: UAP1 KO groups, not in wt; 32 days post tumor injection; FIGS. 12A and 12B
Description: FIGS. 12A and 12B. 32 days post tumor injection, scouts were taken for intra-tumor T cell activation marker analysis. […] Data were obtained using flow cytometry. P values were calculated using two-tailed paired Student t-test. *P<0.05, **P<0.01
To confirm that the observed effect was due to the involvement of the endogenous mouse immune system, the experiment was repeated in NSG immunodeficient mice.

B1: cibisatamab (antibody, chains of the INN, looked up, V domains shown)
VH: QVQLVQSGAEVKKPGASVKVSCKASGYTFTEFGMNWVRQAPGQGLEWMGWINTKTGEATYVEEFKGRVTFTTDTSTSTAYMELRSLRSDDTAVYYCARWDFAYYVEAMDYWGQGTTVTVSS
VL: DIQMTQSPSSLSASVGDRVTITCKASAAVGTYVAWYQQKPGKAPKLLIYSASYRKRGVPSRFSGSGSGTDFTLTISSLQPEDFATYYCHQYYTYPLFTFGQGTKLEIK
VH2: QVQLVQSGAEVKKPGASVKVSCKASGYTFTEFGMNWVRQAPGQGLEWMGWINTKTGEATYVEEFKGRVTFTTDTSTSTAYMELRSLRSDDTAVYYCARWDFAYYVEAMDYWGQGTTVTVSS
VL2: QAVVTQEPSLTVSPGGTVTLTCGSSTGAVTTSNYANWVQEKPGQAFRGLIGGTNKRAPGTPARFSGSLLGGKAALTLSGAQPEDEAEYYCALWYSNLWVFGGGTKLTVL
Q: Which results are given for B1?
A: tumor response (MKN45 tumors; combination of UAP1 gene knockout and CEA TCB): complete tumor regression; tumor response (MKN45 tumors; mice treated with CEA-TCB only): incomplete tumor growth control; patients with radiological shrinkage ([1]; in combination with PD-L1-inhibiting antibodies, 5/10 patients): 50%; patients with radiological shrinkage ([1]; monotherapy, 4/36 patients, failed at least two prior chemotherapy regimens): 11%; T cell killing of UAP1 KO cells compared to wt cells (A549): more efficiently killed; expression of the activation/exhaustion marker (Tim3) in intra-tumor T cells (CD8+ and CD4+ T cells): increased expression
